Measured values taken from article doi:10.1101/391656 (bioRxiv, 2018).

Molecular target: V1ΔC (S. cerevisiae, UniProt P17255 2-283; P17255 738-1071; P16140 1-517; P32610 1-256; P22203 1-233; P39111 …)
Experiment: BLI

B1: MBP-C (natural protein, S. cerevisiae, UniProt P31412 1-392, looked up)
chain: MATALYTANDFILISLPQNAQPVTAPGSKTDSWFNETLIGGRAFVSDFKIPEFKIGSLDTLIVESEELSKVDNQIGASIGKIIEILQGLNETSTNAYRTLPINNMPVPEYLENFQWQTRKFKLDKSIKDLITLISNESSQLDADVRATYANYNSAKTNLAAAERKKTGDLSVRSLHDIVKPEDFVLNSEHLTTVLVAVPKSLKSDFEKSYETLSKNVVPASASVIAEDAEYVLFNVHLFKKNVQEFTTAAREKKFIPREFNYSEELIDQLKKEHDSAASLEQSLRVQLVRLAKTAYVDVFINWFHIKALRVYVESVLRYGLPPHFNIKIIAVPPKNLSKCKSELIDAFGFLGGNAFMKDKKGKINKQDTSLHQYASLVDTEYEPFVMYIINL
Kd: ~0.7 nM
